This note sets out measurements from patent publication US20060121465A1, “Sgk and nedd used as diagnostic and therapeutic targets” (priority 2002, published 2006).

The target in the assay is T1, Sglt1 (Homo sapiens, UniProt P13866).
T1 construct: expressed in transfected cells; host or cells: Xenopus laevis oocytes injected with in vitro synthesized cRNA
T1 sequence (P13866 1-664): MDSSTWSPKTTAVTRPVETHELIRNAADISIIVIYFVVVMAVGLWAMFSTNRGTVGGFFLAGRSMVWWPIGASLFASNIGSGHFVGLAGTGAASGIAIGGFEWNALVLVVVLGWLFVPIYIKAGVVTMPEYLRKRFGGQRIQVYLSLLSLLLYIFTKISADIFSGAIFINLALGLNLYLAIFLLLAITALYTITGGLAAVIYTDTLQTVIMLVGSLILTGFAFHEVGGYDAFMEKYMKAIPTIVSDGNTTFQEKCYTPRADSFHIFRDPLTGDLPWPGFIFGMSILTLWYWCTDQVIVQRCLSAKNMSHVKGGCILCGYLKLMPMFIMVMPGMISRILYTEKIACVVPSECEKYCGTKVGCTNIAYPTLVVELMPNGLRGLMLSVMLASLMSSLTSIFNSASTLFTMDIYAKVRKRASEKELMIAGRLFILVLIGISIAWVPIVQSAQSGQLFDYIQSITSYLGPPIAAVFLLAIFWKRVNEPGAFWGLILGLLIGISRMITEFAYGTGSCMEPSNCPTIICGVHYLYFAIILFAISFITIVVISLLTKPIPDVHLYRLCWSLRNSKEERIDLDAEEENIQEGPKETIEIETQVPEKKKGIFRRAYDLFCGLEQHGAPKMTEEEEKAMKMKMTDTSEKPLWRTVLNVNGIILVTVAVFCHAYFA
The experiment in a line: Two-electrode voltage clamp of glucose-induced currents in Xenopus laevis oocytes expressing Sglt1. Format: cell-based. The text has this:
cRNAs encoding wild-type Sgk1 [Waldegger S, Barth P, Raber G, Lang F: Cloning and characterization of a putative human serine/threonine protein kinase transcriptionally modified during anisotonic and isotonic alterations of cell volume. […] Biochem J. 1999; 339: 319-28], wild-type Sgk3 and PKB [Kobayashi T, Deak M, Morrice N, Cohen P. Characterization of the structure and regulation of two novel isoforms of serum- and glucocorticoid-induced protein kinase. Biochem J. 1999; 334: 189-97], consitutively active ^T308D,S473DPKB [Alessi D R, Cohen P. Mechanism of activation and function of protein kinase B. Curr. Opin Genet Dev. 1998; 8: 55-62], wild-type Nedd4-2 [Debonneville C, Flores S Y, Kamynina E, Plant P J, Tauxe C, Thomas M A, Munster C, Chraibi A, Pratt J H, Horisberger J D, Pearce D, Loffing J, Staub O. Phosphorylation of Nedd4-2 by Sgk1 regulates epithelial Na(+) channel cell surface expression. EMBO J. 2001; 20: 7052-7059] and wild-type Sglt1 [Hediger M A, Coady M J, Ikeda T S, Wright E M. Expression cloning and cDNA sequencing of the Na^+/glucose co-transporter. Nature. 1987; 330: 379-381] were synthesized in vitro [Wagner C A, Friedrich B, Setiawan I, Lang F, Bröer S: The use of Xenopus laevis oocytes for the functional characterization of heterologously expressed membrane proteins. Cell Physiol Biochem 2000; 10: 1-12]. Dissection of the Xenopus laevis ovaries, and collection and treatment of the oocytes, have already been described in detail [Wagner C A, Friedrich B, Setiawan I, Lang F, Broer S: The use of Xenopus laevis oocytes for the functional characterization of heterologously expressed membrane proteins. Cell Physiol Biochem 2000; 10: 1-12]. The oocytes were injected with 5 ng of human sglt1, 7.5 ng of human sgk1, ^K127Nsgk1, ^S422Dsgk1, sgk3, PKB or ^T308D,S473DPKB, and/or with 5 ng of Xenopus nedd4-2. Control oocytes were injected with water. Electrophysiological experiments were carried out at room temperature for 3 days after the respective cRNAs had been injected. The currents which were induced by the extracellular administration of 20 mM or 5 mM glucose were measured using a two-electrode voltage clamp [Wagner C A, Friedrich B, Setiawan I, Lang F, Broer S: The use of Xenopus laevis oocytes for the functional characterization of heterologously expressed membrane proteins. Cell Physiol Biochem 2000; 10: 1-12] and taken as a measure of the glucose transport. The data were filtered at 10 Hz and analyzed using a MacLab Digital to Analog Converter and corresponding software (AD Instruments, Castle Hill, Australia). The control bath solution (ND 96) contained 96 mM NaCl, 2 mM KCl, 1.8 mM CaCl2, 1 mM MgCl2 and 5 mM HEPES, pH 7.4. All the substances were used at the stated concentrations. The final solutions were titrated with HCl or NaOH to the stated pH or pH 7.4. The flow rate of the superfusion solution was 20 ml/min and achieved complete change of solution within 10 s.
For the calculations, the data were quoted as arithmetic means±SEM. n is the number of oocytes investigated. All the experiments were carried out in at least three different groups of oocytes. Qualitatively similar data were obtained in all the repeats. The results were tested for significant differences using Student's t test. Only results giving P<0.05 were made use of as being statistically significant.
On the technique in general: Two-electrode voltage clamp is typically applied to oocytes expressing channels or transporters.

B1: Sgk2: isoform of Sgk, coexpressed in oocytes (protein, UniProt Q9HBY8 1-367, looked up)
Serine/threonine-protein …: MNSSPAGTPSPQPSRANGNINLGPSANPNAQPTDFDFLKVIGKGNYGKVLLAKRKSDGAFYAVKVLQKKSILKKKEQSHIMAERSVLLKNVRHPFLVGLRYSFQTPEKLYFVLDYVNGGELFFHLQRERRFLEPRARFYAAEVASAIGYLHSLNIIYRDLKPENILLDCQGHVVLTDFGLCKEGVEPEDTTSTFCGTPEYLAPEVLRKEPYDRAVDWWCLGAVLYEMLHGLPPFYSQDVSQMYENILHQPLQIPGGRTVAACDLLQSLLHKDQRQRLGSKADFLEIKNHVFFSPINWDDLYHKRLTPPFNPNVTGPADLKHFDPEFTQEAVSKSIGCTPDTVASSSGASSAFLGFSYAPEDDDILDC
Regarding B1, the “stimulation of glucose transport by additional coexpression” value (further series of experiments (FIG. 5), coexpressed with Sglt1 and Nedd4-2) is given as “no significant effect”. The “glucose-induced current increased by coexpression” value (further series of experiments (FIG. 5, procedure as in FIG. 4), coexpressed with Sglt1) is listed as “no statistically significant effect”.
